According to patent CN116731161A (UNIV NANKAI, dated 2023):

Target: T1, FcγRI (UniProt P12314 16-288)
T1 construct: also called CD64
Assay: SPR (Biacore T200), His-tagged target captured on anti-His chip, antibody as analyte

T1 sequence (P12314 16-288 limits assumed): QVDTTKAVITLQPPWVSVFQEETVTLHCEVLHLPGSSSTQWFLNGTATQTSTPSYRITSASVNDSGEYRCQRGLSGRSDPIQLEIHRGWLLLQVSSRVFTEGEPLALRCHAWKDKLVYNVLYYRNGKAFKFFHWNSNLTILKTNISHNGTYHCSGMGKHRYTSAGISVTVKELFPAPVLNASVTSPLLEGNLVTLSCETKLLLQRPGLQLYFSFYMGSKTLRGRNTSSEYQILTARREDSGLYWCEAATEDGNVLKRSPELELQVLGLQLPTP

binding result: binds
B1: X构型Rituximab抗体 (antibody, human IgG1, kappa)
heavy: not shown
light: QIVLSQSPAILSASPGEKVTMTCRASSSVSYIHWFQQKPGSSPKPWIYATSNLASGVPVRFSGSGSGTSYSLTISRVEAEDAATYYCQQWTSNPPTFGGGTKLEIKRTVAAPSVFIFPPSDEQLKSGTASVVCLLNNFYPREAKVQWKVDNALQSGNSQESVTEQDSKDSTYSLSSTLTLSKADYEKHKVYACEVTHQGLSSPVTKSFNRGECGGGGSGGGGSGGGGSGGGGSGGGGSGGGGSVPPPPPCCHPRLSLHRPALEDLLLGSEANLTCTLTGLRDASGVTFTWTPSSGKSAVQGPPERDLCGCYSVSSVLPGCAEPWNHGKTFTCTAAYPESKTPLTATLSKSGNTFRPEVHLLPPPSEELALNELVTLTCLARGFSPKDVLVRWLQGSQELPREKYLTWASRQEPSQGTTTFAVTSILRVAAEDWKKGDTFSCMVGHEALPLAFTQKTIDRLAGK
notes: also called X构型抗体; Rituximab X-body
